We go through five molecules from patent US20150344570A1 (published 2015).

To fix the notation:
B1: H240-Kn125/H240-Hl210/L73-k0 (antibody, human IgG1, kappa)
heavy 1: QDQLVQSGAEVKKPGASVKVSCKASGFNIKDTYIQWVRQAPGQGLEWMGRIDPLRKQTKYREKFEGRVTITADTSTNTAYMELSSLRSEDTAVYYCVRSGREFDYWGQGTLVTVSSASTKGPSVFPLAPSSKSTSGGTAALGCLVKDYFPEPVTVSWNSGALTSGVHTFPAVLQSSGLYSLSSVVTVPSSSLGTQTYICNVNHKPSNTKVDKKVEPKSCDKTHTCPPCPAPEYQWGPMVFLFPPKPKDTLMISRTPEVTCVVVDVSDEEPEVKFNWYVDGVEVHNAKTKPREEQYNATYRVVSVLTVLHQDWLNGKEYKCKVSNKALPAPIEKTISKAKGQPREPQVCTLPPSRDELTKNQVSLWCLVKGFYPSDIAVEWESNGQPENNYKTTPPVLDSDGSFFLYSKLTVDKSRWQQGNVFSCSVMHEALHNHYTQKSLSLSP
heavy 2: QDQLVQSGAEVKKPGASVKVSCKASGFNIKDTYIQWVRQAPGQGLEWMGRIDPLRKQTKYREKFEGRVTITADTSTNTAYMELSSLRSEDTAVYYCVRSGREFDYWGQGTLVTVSSASTKGPSVFPLAPSSKSTSGGTAALGCLVKDYFPEPVTVSWNSGALTSGVHTFPAVLQSSGLYSLSSVVTVPSSSLGTQTYICNVNHKPSNTKVDKKVEPKSCDKTHTCPPCPAPELLGGPSVFLFPPKPKDTLMISRTPEVTCVVVDVSHEEPEVKFNWYVDGVEVHNAKTKPREEQYNSTYRVVSVLTVLHQDWLNGKEYKCKVSNDALPAPIEETISKAKGQPREPQVYTLPPSRCELTKNQVSLSCAVKGFYPSDIAVEWESNGQPENNYKTTPPVLDSDGSFFLVSKLTVDKSRWQQGNVFSCSVMHEALHNHYTQKSLSLSP
light: DIQMTQSPSSLSASVGDRVTITCRASQDIHKYIAWYQQKPGQAPRLLIQYTSTLQPGVPSRFSGSGSGTDYTFTISSLQPEDIATYYCLQYEQLRTFGGGTKVEIKRTVAAPSVFIFPPSDEQLKSGTASVVCLLNNFYPREAKVQWKVDNALQSGNSQESVTEQDSKDSTYSLSSTLTLSKADYEKHKVYACEVTHQGLSSPVTKSFNRGEC
B2: H240-Kn125/H240-Hl214/L73-k0 (antibody, human IgG1, kappa)
heavy 1: B1 heavy 1
heavy 2: B1 heavy 2 with A329F
light: B1 light
B3: H240-Kn125/H240-Hl216/L73-k0 (antibody, human IgG1, kappa)
heavy 1: B1 heavy 1
heavy 2: B1 heavy 2 with A329I
light: B1 light
B4: H240-Kn125/H240-Hl217/L73-k0 (antibody, human IgG1, kappa)
heavy 1: B1 heavy 1
heavy 2: B1 heavy 2 with A329Y
light: B1 light
B5: H240-Kn125/H240-Hl218/L73-k0 (antibody, human IgG1, kappa)
heavy 1: B1 heavy 1
heavy 2: B1 heavy 2 with A329H
light: B1 light

Positions count from the first letter of the chain named.

T1 sequence (P12314 16-292): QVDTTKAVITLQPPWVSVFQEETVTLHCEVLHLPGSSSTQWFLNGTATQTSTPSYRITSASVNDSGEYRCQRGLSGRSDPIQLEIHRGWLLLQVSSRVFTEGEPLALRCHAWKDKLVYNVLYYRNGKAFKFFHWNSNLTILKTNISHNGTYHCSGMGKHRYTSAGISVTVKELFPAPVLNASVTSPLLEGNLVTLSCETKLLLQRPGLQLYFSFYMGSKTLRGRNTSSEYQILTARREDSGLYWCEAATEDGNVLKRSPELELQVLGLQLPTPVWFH

One test concerns the target T1, FcgRIa (human, UniProt P12314 16-292).
T1 construct: extracellular domain; also called FcγRIa; FcγRI; not shown: His tag at the C terminus
The test can be described thus: SPR (Biacore), antibody captured, FcgR extracellular domain as analyte. On the procedure:
(§1) Next, the amino acid at position 330 was examined. The A330M alteration has been introduced into H240-Hl076 of H240-Kn125/H240-Hl076/L73-k0. […] L73-k0 was used as the common antibody L chain. Binding of the produced variants to FcgRIa, FcgRIIaR, FcgRIIaH, FcgRIIb, FcgRIIIaF, and FcgRIIIaV was measured according to the method of Reference Example 8.
(§2) Analysis of interaction between objective antibody and the FcγR was carried out using Biacore T100 (GE Healthcare), Biacore T200, Biacore A100, and Biacore 4000. HBS-EP+ (GE Healthcare) was used as the running buffer, and the measurement temperature was set to 25° C. Chips produced by immobilizing the antigen peptide by the amine coupling method to a Series S sensor Chip CM5 (GE Healthcare), chips produced by allowing preliminarily biotinylated antigen peptides to interact with and immobilize onto a Series S Sensor Chip SA (certified) (GE Healthcare), chips produced by immobilizing Protein L (ACTIGEN, BioVision) to Series S Sencor Chip CM5 (GE Healthcare), or chips produced by immobilizing Protein A/G (Thermo Scientific) to Series S Sencor Chip CM5 (GE Healthcare) were used. Antibodies of interest were captured onto these chips, and allowed to interact to each FcγR diluted with running buffer. To regenerate and repeatedly use the chip, the antibodies captured onto the chip were washed off by reacting 10 mM glycine-HCl, pH 1.5.
Regarding B1, the dissociation constant Kd turned out to be 0.065 nM.

Molecule B2 came in with a dissociation constant Kd of 0.08 nM.

Take B3: the Kd was 0.073 nM.

B4 displayed a Kd of 0.076 nM.

In turn, B5 gave a Kd of 0.092 nM.

A further test deals with T2, FcgRIIIaF (human, UniProt P08637 17-208).
T2 construct: extracellular domain; Polymorphic site after J. Clin. Invest; also called FcγRIIIa F; 3aF; not shown: His tag at the C terminus
T2 sequence (P08637 17-208): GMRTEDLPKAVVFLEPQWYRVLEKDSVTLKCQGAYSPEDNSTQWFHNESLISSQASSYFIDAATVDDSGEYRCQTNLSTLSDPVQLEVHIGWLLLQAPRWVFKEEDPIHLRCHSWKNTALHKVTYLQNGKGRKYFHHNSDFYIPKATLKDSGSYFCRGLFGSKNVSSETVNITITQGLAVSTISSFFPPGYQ
The test is described as above. On the procedure: as §1, §2
B1 yielded an equilibrium dissociation constant (Kd) of 4.1 nM.

In the case of B2, the Kd amounted to 1.6 nM.

In the case of B3, the Kd worked out at 2.7 nM.

Molecule B4 had a Kd of 2.4 nM.

B5 gave a Kd of 2.6 nM.

The target in a further test is T3, FcgRIIb (human, UniProt P31994 43-217).
T3 construct: extracellular domain; also called FcγRIIb; 2b; not shown: His tag at the C terminus
T3 sequence (looked up): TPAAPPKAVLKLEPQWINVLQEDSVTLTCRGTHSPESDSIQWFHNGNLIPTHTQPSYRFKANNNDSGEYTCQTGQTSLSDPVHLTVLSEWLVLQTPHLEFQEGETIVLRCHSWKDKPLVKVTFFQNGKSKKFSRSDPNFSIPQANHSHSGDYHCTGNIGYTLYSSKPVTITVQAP
Described as above. On the procedure:
as §1, §2
Regarding B1, the affinity, expressed as Kd, was 6900 nM.

The molecule B2 yielded a dissociation constant Kd of 4400 nM.

In turn, B3 displayed a dissociation constant Kd of 8300 nM.

B4 registered a Kd of 3500 nM.

Molecule B5 came in with a Kd of 2900 nM.

A further test addresses T4, FcgRIIaH (human, UniProt P12318 34-217).
T4 construct: extracellular domain; also called FcγRIIa H; FcγRIIa type H; not shown: His tag at the C terminus
T4 sequence (looked up): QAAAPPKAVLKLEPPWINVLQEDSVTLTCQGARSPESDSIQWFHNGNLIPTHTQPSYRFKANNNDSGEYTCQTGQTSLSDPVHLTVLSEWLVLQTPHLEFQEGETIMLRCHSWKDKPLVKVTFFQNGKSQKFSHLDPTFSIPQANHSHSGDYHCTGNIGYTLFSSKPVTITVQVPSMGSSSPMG
Described as above. The protocol:
as §1, §2
Turning to B1, binding was characterised by a dissociation constant (Kd) of 150 nM.

In turn, B2 displayed a Kd of 150 nM.

Take B3: the equilibrium dissociation constant (Kd) stood at 210 nM.

As for B4, the Kd is 130 nM.

B5 registered a dissociation constant (Kd) of 110 nM.

The target of the next test is T5, FcgRIIaR (human, UniProt P12318 34-217).
T5 construct: extracellular domain; also called FcγRIIa R; FcγRIIa type R; not shown: His tag at the C terminus
T5 sequence (looked up): T4 sequence (looked up) with H134R
The test is described as above. On the procedure:
as §1, §2
On to B1, for which the Kd came out at 650 nM.

Consider B2, for which the Kd is 450 nM.

Molecule B3 had an equilibrium dissociation constant (Kd) of 770 nM.

B4: the affinity, expressed as Kd, was 440 nM.

Take B5: the equilibrium dissociation constant (Kd) turned out to be 310 nM.

The target in the next test is T6, FcgRIIIaV (human, UniProt P08637 17-208).
T6 construct: extracellular domain; Polymorphic site after J. Clin. Invest; also called FcγRIIIa V; 3aV; not shown: His tag at the C terminus
T6 sequence (P08637 17-208 F176V limits assumed): as the sequence (P08637 17-208) above, with F160V counted along it
The description is as above. The protocol:
as §1, §2
B1: the affinity, expressed as Kd, was 0.48 nM.

On to B2, for which the affinity, expressed as Kd, was 0.38 nM.

Turning to B3, the Kd came out at 0.6 nM.

In the case of B4, binding was characterised by a dissociation constant (Kd) of 0.33 nM.

B5 showed a Kd of 0.68 nM.

A further test concerns the target T2, FcgRIIIaF. The test can be described thus: SPR (Biacore); KD of H240-Kn033/H240-Hl033/L73-k0 divided by KD of the variant.
With B1, the “fold 3aF” value stood at 70.7 fold.

Take B2: the “fold 3aF” value was 181 fold.

With B3, the “fold 3aF” value was 107 fold.

For B4, the “fold 3aF” value was 121 fold.

In the case of B5, the “fold 3aF” value was 112 fold.

The next test has as its target T3, FcgRIIb. The description is as above.
In the case of B1, the “fold 2b” value was 0.5 fold.

In the case of B2, the “fold 2b” value worked out at 0.8 fold.

Consider B3, for which the “fold 2b” value was determined as 0.4 fold.

For the molecule B4, the “fold 2b” value was determined as 0.9 fold.

On to B5, for which the “fold 2b” value worked out at 1.1 fold.

Another test deals with T4, FcgRIIaH. The description is as above.
In the case of B1, the “fold 2aH” value is 3.5 fold.

With B2, the “fold 2aH” value was determined as 3.5 fold.

Take B3: the “fold 2aH” value amounted to 2.5 fold.

B4: the “fold 2aH” value came to 4 fold.

B5: the “fold 2aH” value was found to be 4.7 fold.

Another test has as its target T5, FcgRIIaR. The description is as above.
In the case of B1, the “fold 2aR” value came out at 1.1 fold.

In the case of B2, the “fold 2aR” value was 1.6 fold.

B3: the “fold 2aR” value was 1 fold.

On to B4, for which the “fold 2aR” value was 1.7 fold.

Take B5: the “fold 2aR” value came to 2.4 fold.

The target of a further test is T6, FcgRIIIaV. The description is as above.
Take B1: the “fold 3aV” value is 100 fold.

On to B2, for which the “fold 3aV” value is 126 fold.

With B3, the “fold 3aV” value amounted to 80 fold.

As to B4, the “fold 3aV” value was determined as 146 fold.

For B5, the “fold 3aV” value was determined as 70.6 fold.
